Patent publication US20150056222A1

Molecular target: mouse PRLR on HEK293 cells (mouse) (UniProt Q08501)
Assay: FACS, HEK293/mPRLR cells

Sequence of mouse PRLR on HEK293 cells (mouse) (Q08501 20-608): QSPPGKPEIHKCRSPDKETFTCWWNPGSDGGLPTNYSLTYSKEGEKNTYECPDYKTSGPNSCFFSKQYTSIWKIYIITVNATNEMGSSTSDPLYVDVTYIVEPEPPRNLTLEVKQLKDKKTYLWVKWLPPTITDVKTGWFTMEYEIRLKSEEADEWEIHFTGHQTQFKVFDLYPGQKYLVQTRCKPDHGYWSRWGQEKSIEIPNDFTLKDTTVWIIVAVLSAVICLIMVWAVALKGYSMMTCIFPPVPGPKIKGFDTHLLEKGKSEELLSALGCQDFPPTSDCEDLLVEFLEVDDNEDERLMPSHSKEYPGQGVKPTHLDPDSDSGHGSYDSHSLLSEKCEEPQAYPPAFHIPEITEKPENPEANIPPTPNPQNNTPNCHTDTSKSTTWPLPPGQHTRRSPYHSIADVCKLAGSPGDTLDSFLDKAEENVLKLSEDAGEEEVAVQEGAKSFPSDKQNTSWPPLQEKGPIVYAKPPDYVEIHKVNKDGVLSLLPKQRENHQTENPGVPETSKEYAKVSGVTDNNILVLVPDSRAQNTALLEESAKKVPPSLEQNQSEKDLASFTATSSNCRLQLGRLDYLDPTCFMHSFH

FACS Cell Binding (Fold Above Background) (fold above background): 56
B1: H1H6801P (antibody, human IgG1, V domains shown)
VH: QVQLQQSGPGLVKPSQTLSLTCVISGDSVSSNTAWNWVRQSPSRGLEWLGRTYYRSKWYNDYAVSVKSRITINPDTSKNQFSLLMNSVTPEDTAVYYCARVVRGLNYFDYWGQGTLVTVSS
VL: DIVMTQSPDSLAVSLGERATINCKSSQSVLYNSNNKNYLAWYQQKPGQPPKLLIYWSSSRESGVPDRFSGSGSGTDFTLTISGLQAEDVAIYYCQQYSTIPYTFGQGTKLEIK
